According to US20220175873A1:
No end group written: not given here.

How the values were obtained:
[1] = molecular target: FQSE (SEQ ID NO:10)-specific binding sites in rat cortex membranes (rat); assay: radioligand analysis, rat cortex membranes, incubation 10 min at 4 °C
[2] = molecular target: FQSE (SEQ ID NO:10)-specific binding sites in rat cortex membranes (rat); assay: radioligand analysis, rat cortex membranes, incubation 20 min at 4 °C
[3] = molecular target: FQSE (SEQ ID NO:10)-specific binding sites in rat cortex membranes (rat); assay: radioligand analysis, rat cortex membranes, incubation 10 min at 37 °C
[4] = molecular target: FQSE (SEQ ID NO:10)-specific binding sites in rat cortex membranes (rat); assay: radioligand analysis, rat cortex membranes, incubation 20 min at 24 °C
[5] = molecular target: FQSE (SEQ ID NO:10)-specific binding sites in rat cortex membranes (rat); assay: radioligand analysis, rat cortex membranes, incubation 20 min at 37 °C
[6] = molecular target: FQSE (SEQ ID NO:10)-specific binding sites in rat cortex membranes (rat); assay: radioligand analysis, rat cortex membranes, incubation 30 min at 24 °C
[7] = molecular target: FQSE (SEQ ID NO:10)-specific binding sites in rat cortex membranes (rat); assay: radioligand analysis, rat cortex membranes, incubation 30 min at 37 °C
[8] = molecular target: FQSE (SEQ ID NO:10)-specific binding sites in rat cortex membranes (rat); assay: radioligand analysis, rat cortex membranes, incubation 25 min at 24 °C (selected condition)
[9] = molecular target: FQSE (SEQ ID NO:10)-specific binding sites in rat cortex membranes (rat); assay: radioligand analysis with [3H] FQSE and unlabeled FQSE on membranes isolated by various techniques
[10] = molecular target: FQSE (SEQ ID NO:10)-specific binding sites in rat cortex membranes (rat); assay: radioligand analysis, rat cortex membranes, buffer with added salts (NaCl, KCl, KH2PO4, CaCl2, MgCl2)
[11] = molecular target: NMDA receptors of rat hippocampal plasma membranes (rat); assay: radioligand analysis with [^3H]-FQSE and unlabeled FQSE on rat hippocampal membranes isolated for NMDA receptors (negative control)
[12] = molecular target: FQSE (SEQ ID NO:10)-specific binding sites in rat cortex membranes (rat); assay: displacement of [^3H]-FQSE by unlabeled FQSE, rat cortex membranes, 25 min at room temperature
[13] = molecular target: GABAA receptor of rat cerebral cortex plasma membranes (rat); assay: [^3H]-Flunitrazepam radioligand analysis (benzodiazepine site), 30 min incubation, 4 °C; FQSE 10^-4 M
[14] = molecular target: GABAA receptor of rat cerebral cortex plasma membranes (rat); assay: [^3H]-Flunitrazepam radioligand analysis (benzodiazepine site), 30 min incubation, 4 °C; FQSE 10^-5 M
[15] = molecular target: GABAA receptor of rat cerebral cortex plasma membranes (rat); assay: [^3H]-Flunitrazepam radioligand analysis (benzodiazepine site), 30 min incubation, 24 °C; FQSE 10^-4 M
[16] = molecular target: GABAA receptor of rat cerebral cortex plasma membranes (rat); assay: [^3H]-Flunitrazepam radioligand analysis (benzodiazepine site), 30 min incubation, 24 °C; FQSE 10^-5 M
[17] = molecular target: GABAA receptor of rat cerebral cortex plasma membranes (rat); assay: [^3H]-Flunitrazepam radioligand analysis (benzodiazepine site), 25 min pre-incubation + 30 min incubation, 4 °C; FQSE 10^-4 M
[18] = molecular target: GABAA receptor of rat cerebral cortex plasma membranes (rat); assay: [^3H]-Flunitrazepam radioligand analysis (benzodiazepine site), 25 min pre-incubation + 30 min incubation, 4 °C; FQSE 10^-5 M
[19] = molecular target: GABAA receptor of rat cerebral cortex plasma membranes (rat); assay: [^3H]-Flunitrazepam radioligand analysis (benzodiazepine site), 25 min pre-incubation + 30 min incubation, 24 °C; FQSE 10^-4 M
[20] = molecular target: GABAA receptor of rat cerebral cortex plasma membranes (rat); assay: [^3H]-Flunitrazepam radioligand analysis (benzodiazepine site), 25 min pre-incubation + 30 min incubation, 24 °C; FQSE 10^-5 M

Row | Binder | % percentage of specific binding of total binding [1] | % percentage of specific binding of total binding [2] | % percentage of specific binding of total binding [3] | % percentage of specific binding of total binding [4] | % percentage of specific binding of total binding [5] | % percentage of specific binding of total binding [6] | % percentage of specific binding of total binding [7] | % percentage of specific binding of total binding [8] | specific FQSE binding percentage of the total binding [9] | percentage of specific binding [10] | difference between total and non-specific binding [11] | IC50 [12] | Specific binding of [^3H]-Flunitrazepam, relative to control levels, % [13] | Specific binding of [^3H]-Flunitrazepam, relative to control levels, % [14] | Specific binding of [^3H]-Flunitrazepam, relative to control levels, % [15] | Specific binding of [^3H]-Flunitrazepam, relative to control levels, % [16] | Specific binding of [^3H]-Flunitrazepam, relative to control levels, % [17] | Specific binding of [^3H]-Flunitrazepam, relative to control levels, % [18] | Specific binding of [^3H]-Flunitrazepam, relative to control levels, % [19] | Specific binding of [^3H]-Flunitrazepam, relative to control levels, % [20]
1 | FQSE (also: tritium label ([3H]), position not given here) [[^3H]-FQSE (SEQ ID NO:10), tritium radiolabeled peptide] | 47% | 48% | 72% | 75% | 79% | 78% | 77% | 86% | 0 to 47% | 63% | 11% | – | – | – | – | – | – | – | – | –
2 | FQSE [FQSE (SEQ ID NO:10) peptide, unlabeled] | – | – | – | – | – | – | – | – | – | – | – | 2000 nM | 100% | 100% | 101% | 101% | 101% | 101% | 101% | 99.8%
